These results are taken from PMC6787082, “The cell cycle-regulated DNA adenine methyltransferase CcrM opens a bubble at its DNA recognition site”.

In series [1] the target is T1, CcrM (Caulobacter crescentus, UniProt P0CAW2 1-358). Kind of series: X-ray crystallography (2.7 A); sinefungin; Co-crystallization: protein stock in 20 mM HEPES pH 8.0, 300 mM NaCl, 5% glycerol, 0.5 mM TCEP; ~1:1 monomer:duplex (~56 uM), 5x sinefungin; well 0.1 M HEPES pH 7.8, 10% PEG 8000, 3% PEG 6000; 19 C. The following applies: protein: recombinant; tags: N-terminal His-tag; chain copies: 2; 5' overhang 1 nt on each strand, 18 bp.

Series [2] has as its target T1, CcrM. Kind of series: X-ray crystallography (2.34 A); sinefungin; Co-crystallization: protein stock in 20 mM HEPES pH 8.0, 300 mM NaCl, 5% glycerol, 0.5 mM TCEP; ~1:1 monomer:duplex (~56 uM), 5x sinefungin; well 0.1 M HEPES pH 7.8, 10% PEG 8000, 3% PEG 6000; 19 C. The following applies: protein: recombinant; tags: N-terminal His-tag; chain copies: 2; 5' overhang 1 nt on each strand (C and G), 18 bp.

T1 sequence (P0CAW2 whole entry): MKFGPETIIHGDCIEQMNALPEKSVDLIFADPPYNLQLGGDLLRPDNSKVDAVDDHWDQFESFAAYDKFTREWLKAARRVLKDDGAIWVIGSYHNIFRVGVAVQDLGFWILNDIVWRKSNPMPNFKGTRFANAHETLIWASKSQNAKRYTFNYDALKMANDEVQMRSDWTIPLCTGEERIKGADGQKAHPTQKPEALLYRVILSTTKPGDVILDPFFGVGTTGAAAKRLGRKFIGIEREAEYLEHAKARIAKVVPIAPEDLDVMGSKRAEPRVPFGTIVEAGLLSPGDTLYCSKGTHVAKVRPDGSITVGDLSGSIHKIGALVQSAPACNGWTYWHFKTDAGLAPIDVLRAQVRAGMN

B1: Hemimethylated GAATC duplex (dsDNA)
DNA 1: CGATTCAATGAATCCCAAG
DNA 2: GCTTGGGATTCATTGAATC
modifications: N6-methyladenine (printed M) at position 8 of strand 2 (GATTC, non-target strand)
Turning to B1, the binding result in the series with CcrM [1] is “binds”.

B2: GAATC 18-bp duplex with 1-nt overhangs (dsDNA)
DNA 1: CGATTCAATGAATCCCAAG
DNA 2: GCTTGGGATTCATTGAATC
On to B2, for which, in the series with CcrM [2], the binding result was “binds”.
